# Source: patent publication US20030036166A1
# Assays:
# [1] = target: T1, ErbB4.Fc (UniProt Q15303); assay: displacement of ^125I-NRG3^EGF.Fc (80 pM) from immobilized ErbB4.Fc by unlabeled NRG3^EGF.Fc, 96-well plate, nonlinear regression
# T1 sequence (looked up): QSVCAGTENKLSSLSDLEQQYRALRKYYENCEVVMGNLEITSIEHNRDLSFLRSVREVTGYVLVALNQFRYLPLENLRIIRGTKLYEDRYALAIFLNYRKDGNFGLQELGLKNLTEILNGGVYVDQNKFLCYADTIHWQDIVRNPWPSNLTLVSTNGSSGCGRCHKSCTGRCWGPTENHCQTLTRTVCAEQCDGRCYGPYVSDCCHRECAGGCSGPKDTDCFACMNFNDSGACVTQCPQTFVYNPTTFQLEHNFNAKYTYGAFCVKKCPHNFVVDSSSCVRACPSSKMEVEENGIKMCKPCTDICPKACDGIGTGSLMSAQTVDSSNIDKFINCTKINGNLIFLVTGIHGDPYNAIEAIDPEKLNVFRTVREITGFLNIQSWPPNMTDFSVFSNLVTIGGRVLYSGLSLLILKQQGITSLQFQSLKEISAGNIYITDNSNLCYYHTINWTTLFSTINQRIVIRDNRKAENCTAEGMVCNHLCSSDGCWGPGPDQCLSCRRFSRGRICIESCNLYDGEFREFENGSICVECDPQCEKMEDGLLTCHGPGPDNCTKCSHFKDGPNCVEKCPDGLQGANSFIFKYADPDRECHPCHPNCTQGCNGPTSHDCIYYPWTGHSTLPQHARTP
# [2] = target: T1, ErbB4.Fc; assay: displacement of ^125I-NRG3^EGF.Fc (80 pM) from immobilized ErbB4.Fc by NRG1^EGF, 96-well plate, nonlinear regression
# Chain of NRG3^EGF.Fc (O35181 284-344 limits assumed): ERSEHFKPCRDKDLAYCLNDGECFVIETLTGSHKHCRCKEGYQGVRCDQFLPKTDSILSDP
Ki [1],Ki [2],Substance
9 nM,–,NRG3^EGF.Fc (from UniProt O35181 284-344) (Fc fusion)
–,1 nM,"NRG1^EGF (EGF-like domain of heregulin-β1, rHRGβ1 177-244) (from UniProt Q02297 177-244) (ligand)"
